Consider 41 sequences from the nanobody polyreactivity screen of Harvey et al. (2022).

This series is described as follows: yeast display, Sf9 membrane polyspecificity reagent, FACS + sequencing; frameworks hold sequencing errors. The method in brief: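 Using colony PCR, genes from sorted yeast display clones were amplified, then sequenced on MiSeq at 2 × 250 and filtered by CDR length. The clones had been stained with 10% biotinylated, detergent-solubilized Sf9 membrane reagent for 1 hour at 4 °C and sorted by FACS into low and high (top ~1%) gates on anti-HA and streptavidin fluorescence. Polyreactivity labels come from the gate of origin.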
In the case of “QVQLVESGGGLVQAGGSLRLSCAASGLIFRRYTMGWYGQGPGKERELVAAITSSGGNTYYADSVKGRFTISRDNAKNTVYLQMNSLKPEDTAVYYCNNPGTHNYYYWGQGTQVTVSS”, the “polyreactivity (PSR sort gate)” value is reported as “high polyreactivity”. As for “QVQLVESGGGLVQAGGSLRLSCAASGRTFTKYAMGWYRQAPGKERELVAGITRRGGNTYYADSVKGRFTISRDNAKNTVYLQMNSLKPEDTAVYYCAKGYDFLRYDYWGQGTQVTVSS”, the “polyreactivity (PSR sort gate)” value is recorded as “high polyreactivity”. With “QVQLVESGGGLVQAGGSLRLSFAASGFTISYYAMGWYRQAPGKERELVAAISQSGGSTYYADSVKGRFTISRDNAKNTVYLQMNSLKPEDTAVYYCAADTYYNLGNYWGQGTQVTVSS” the entry was “high polyreactivity”.

For the sequence “HVQQQESGGGLEQAGGSLRLSCAASGNISYSRNMGWYRQAPGKERELVAAIDRGAITYYADSVKGRFTISRDNAKNTVYLQIYSLKPEDTAVYYCAAVYHDRWDHRYWGQGTQVTVSR”, the “polyreactivity (PSR sort gate)” value is reported as “high polyreactivity”. As to “QVQLVESGGGLVQAGGSLRLSCAASGGIFPPNVMGWYRPAPGKETELVAANSRSGGSTYYADSVKGRFTISRDNAKNTVYLQMNSLTAEDTAVYYCAAANTQRGFRYDYWGQGTQVTVSS”, the “polyreactivity (PSR sort gate)” value is “high polyreactivity”. Then “QVQLVESGGGLVQAGGSLRLSCAASGRTFYIYAMGWYRQAPGNERELVADISSSDDSTYYADSEKGRFTISRDNAKNTVYLQMNSLKPEDTAVYYCAAELYYFFDEHYYWGQGTQVTVSS”, with “low polyreactivity”; and “QVQLVESGGGLVQAGGSLRLSCAASGSIFTFYALGWYRQAPGQERELVAAISYSGGSTYYADSVTGRFTISRDNAKITVYLQMNSLKPEDTAVFYCARDYFVDGPGYDYWGQGTQVTVSS”, with “low polyreactivity”; and “QVQLVESGGGLVQAGGSLRLSCAASGRTIEQYDMGWYRQAPGKDRELVAAISWRGGGTYYADSVKGRFTISRDNAKNTVYLQMNSLKPEDTAVYYCAKKSHTTDEGYDYWGQGTQVTVSS”, with “low polyreactivity”. On to “QVQLVESGGGLVQAGGSLRLSCAASGRTFFWNDMGWYRPAPGKERELVAAITWSGGSTYYADSVKGRFTISRDNAKNTVYLQMNSLKPEDTAVYYCDAVVSDYVWRYEYWGQGTQVTVSS”, for which the “polyreactivity (PSR sort gate)” value was “low polyreactivity”. For the sequence “HVQLVESGGGLVQAGGSLRLSCAASGRTFYIYAMGWYRKAPGKERELVAAITWSGGTTYYADSVKGRFTISRDNAKNPVYLQMTSLKPEDTAVYYCAADSYGFYLESYYWGQGTQVTVSS”, the “polyreactivity (PSR sort gate)” value was “low polyreactivity”. Then “QVQLVESGGGLLQAGGSLRLSCAASGRTFSVNAMGWYRQAPGKERELVATITWSGSSTSYADSVKGRFTISRDNAKNTVDLQMNSLKPEDTAVYYCAADLWTLIYLTDTYGHWGQATQVTVSS”, with “low polyreactivity”; and “QVQLVESGGGLVQAGGSLRLSCAASGYTFVRYAMGWYRQAPGKEREFVASISTSGGSTYYADSVKGRFTISRDNAKNTVYLQMNSLKPEDTAVYYCAAGHVVRRPYLIYDYWGQGTQVTVSS”, with “high polyreactivity”.

As for “QVQLVESGGGLVQAGGSLRLSCAASGITFQRYVMGWYRQAPGKERELVAAISFSGSSTYYADSVKGRFTISRDNAKNTVYLQMNSLKPEDTAVYYCAADGSVPKYVPYPRYYGYGYWGQGTQVTVSS”, the “polyreactivity (PSR sort gate)” value is reported as “high polyreactivity”. “QVQLVESGGGLVQAVGSLRLSCAASVIIFDVNAMGWYRQAPAKERELVATISKRGGTTYYADSVKGRFTISRDNAKNTVYLQMYSLKPEDTAVYYCAARHQTLRSYRYDYWGQGTQVTVSS”: the “polyreactivity (PSR sort gate)” value is “low polyreactivity”. Then “QVQLVESGGGLVQAGGSLRLSCAASGRTFKGYAMGWYRQAPGKERELVAGISTGGNTNYADSVMGRFTISRDNAKNTVYLQMNSLKPEDTAVYYCNAVYRGFTHYTGYEYWGQGTQVTVSS”, with “high polyreactivity”; and “QDQLVESGGGLVQAGGSLRLSCAASGITFFVYDMGWYRQAPGTERELVAAITWSGDSTYYADSVKGRFTISRDNAKNTVYLQMNSLKPEDTAVYYCAAQFDVYYSRQPYDYNRSGYWGQGTQVTVSS”, with “low polyreactivity”.

In the case of “QVQLVESGGGLVQAGGSLRLSCAASGRIFPFYAMGWYRQAPGKERELVAAISSSGGSTYYADSVKGRFTISRDHAKNTVYFQMNSLKPEDTAVYYCAATRNSDGMGYWGQGTQVTVSS”, the “polyreactivity (PSR sort gate)” value is listed as “low polyreactivity”. Then “QVQLVESGGGLVQAGGSLRLSCAASGSIFRNNAMGWYRQAPGKERELVASITRRGGSTYYADSVKGRFTISRDNAKNTVYLQMNSLKPEDTAVYYCAATTQHRYKLNYWGQGTQVTVSS”, with “high polyreactivity”. Take “QVQLVESGGRLVQAGGSLRLSCAASGSTFYDYAMGWYRQAPGKERELVASIDSGDSTNYADSVKGRFTISRDNAKNTVYLQMNSLKPEDTAVYYCAADYRAPLDYWGQGTQVTVSS”: the “polyreactivity (PSR sort gate)” value is given as “low polyreactivity”. With “QVQLLESGVGLVQAGGILRLSCAASGITFSRYTMGWYRQAPGKERELVAANSSAGNTYYADSVNGRFTISRDNAKNTVYLQMNSLKPEDTAVYYCAREYTYYPRWVGYDAYGEDYWGQGTQVTVSS” the entry was “low polyreactivity”; with “QVQLVESGGGLVQAGGSLRLSCAASGFIFSYYAMGWYRQAPGKERELVAAITWDGGSTYYADSVKGRFTISRDYANNTVYLLLNSLKPEDTAVYYCNAYYYYRRPLEGGYWGQGNQVTVSS”, “low polyreactivity”; with “QVQLVESGGGLVQAGGSLRLSCAASGITFPRYAMGWYRQAPGKERELVATITRSGGGTYYADSVKGRFTISRDNAKNTVNLQMNSLKPEDTAVYYCAAGALQRGVYGYGYWGQGTQVTVSS”, “high polyreactivity”. Then “QVQLVESGGGLVQAGGSLRLSCAASGRIFSFNAMGWYRQAPGKERELVATISWNGDSTYADSVKGRFTISRDNAKNTVYLQMNSLKPEDTAVYYCAVDVPPWDYDYWGQGTQVTVSS”, with “low polyreactivity”. Then “QVQLLESGGGLVQAGGSLRLSCAASGFTFTYYAMGWYRQAPGKERELVAAISRRGGSTYYADSVKGRFTISRDNAKNTVYLQMNSLKPEDTAVYYCARDYNSAVGMVYWGQGTQVTVSS”, with “high polyreactivity”; and “QVQLVESGGGLVQAGGSLRLSCAASGSIFWRYAMGWDRQAPGKERELVATITSRGGSTYYADSVKGRFTISRDNAKNTVYLQMNSLKPEDTAVYYCAATGLPGYYAYDYWGQGTQVTVSS”, with “low polyreactivity”; and “QVQLVESGGGLVQAGGSLRLSCAASGFTFTHYAMGWYRQAPGKERELVAAITDTGGGTYYADSVKGRFTISRHNAKNTVYLQMNSLKPQDTAVYYCAKPTSYRGYYSWGQGTQVTVSS”, with “high polyreactivity”. As to “QVQLVESGGGLVQAGGSLRLSCAASGGIFGWYAMGWYRQAPGKERELVATITWRGGRTYYADSVKGRFTISRDNAKNTVYLQMNSLKPEDTAVYYCNAEWLWYDAGYRYTIRDSWGQGTQVTVSS”, the “polyreactivity (PSR sort gate)” value is reported as “low polyreactivity”. For “QVQLVESGGGLVQAGGILRLSCAASGLIFITYAMGWYRQAPGKERELVATITLRGGSTYYADSVKGRFTISRDNAKNTVYLQMNSLKPEDTAVYYCAADVGYWGRSRGYPSDDYDYWGQGTQVTVSS”, the “polyreactivity (PSR sort gate)” value is “low polyreactivity”. With “QVQLVESGGGLVQAGGSLRLSCAASGFTFSYYAMGWYRQAPGKERELVAAISGSGGSTYYADSVKGRFTISRDNAKNTVYLQMNSLKPEDTAVYYCNARWRTRGHPEMYHWGQGTQVTVSS” the entry was “high polyreactivity”; with “QVQLVESGGGLVQAGGSLRLSCAASGFIIQYYAMGWYRQAPGKERELVAVIRSGGSTYYADSVKGRFTISRDNAKNTVFFQMNSLKPEDTAVYYCIARRTYLDRYNYWGQGTQVTVSS”, “high polyreactivity”. With “QVQLVESGGGLVQAGGSLRLSCAASGSTFIIYAMGWYRQAPGKERELVAAISWSGGSTYYADSVKGRFTISRDNAKNTVYLQMNSLKPEDTAVYYCAVVYRTRWSDYDYWGQGTQVTVSS” the entry was “high polyreactivity”; with “QVQLVESGGGLVQAGGSLRLSWAASGSTFYPYAMGWYRPAPGKERELVAAISSSSSTNYADSVKGRFTISRDNAKNTVYLQMNSLKPEDTAVYYCAVTRVIESKQIRYDYWGQGTQVTVSS”, “low polyreactivity”.

“QVQLVESGGGIVQAGGSLRLSCAATGRIFTGYTMGWYRQAPGKERELVAAISQSGGRTYYADSVKGRFTISRDNAKHTVYLQMNSLKPEDTAVYYCAAVWSRTGYDYCGQGTQVTVSS”: the “polyreactivity (PSR sort gate)” value is listed as “high polyreactivity”.

With “QVQLVESGGGLVQAGGSLRLSCAASGFTISRYAIGWYRQAPGKERELVAAITGSGGSTYYADSVKGRFTISRDNAKNTVYLQMNSLKPEDTAVYYCNTLKHYKREYDYWGQGTQVTVSS”, the “polyreactivity (PSR sort gate)” value was “high polyreactivity”. For the sequence “QVQLVESGGGLVQAGGSLRLSCAASGSTFRKYAMGWYRQAPGKERELVAAISRGGTSTYYADSVKGRFTISRDNAKNTVYLQMNSLKPEDTAVYYCRYFRYSYGTKYDYWGQGTQVTVSS”, the “polyreactivity (PSR sort gate)” value was “high polyreactivity”. With “QVQLVESGGGLVQAGGSLRLSCAASGRTFTPNAMGWYRQAPGKDRELVAAITSTGGRTYYADSVKGRFTISRDNAKNTVYLQMNSLKPDDTAVYYCAVSYRYLRKYGYWGQGTQVTVSS” the entry was “high polyreactivity”. With “QVQLVESGGGLVQAGGSLRLSCAASGSTFDWYTMGWYRQATGKERELVADITSGGSTYYADSVKGRFTISRDNAKNTVYLQMNSLKPEDTAAYYCNAYLYTWRWAFDYWGQGTQVTVSS” the entry was “high polyreactivity”; with “QVQLVESGGGLVQAGGSLRLSCAASGITFYHYAMGWYRQAPGKERELVAAISVSGGRTYYADSVKGRFTISRDNAKITVYLQMNSLKPEDTAVYYCAKVSQVRGFYYWGQGTQVTVSS”, “high polyreactivity”.

With “QVQLVESGGGLVQAGGSLRLSCAASGSTFNVYSMGWYRQAPGKERELVAAIDTGDGSTFYADSVKGRFTISRDNAKNTVYLQMNSLKPEDTAVYYCAAEFWAIVDGDYCGQGTQVTVSS”, the “polyreactivity (PSR sort gate)” value is given as “high polyreactivity”. On to “QVQLVESGGGLVQAGGSLRLSCAASGSIFSYYAMGWYRQAPGKERELVASISWNGTSTYYADSVKGRFTISRDNAKNTVYLQMNSLKPEDTAVYYCNAVLSGWGYFYGLNYWGQGTQVTVSS”, for which the “polyreactivity (PSR sort gate)” value is “low polyreactivity”.

Take “QVQIVESGGGLVQAGVSLRLSCAASGLTIGVYAMGWYRQAPGKERELVAAISWSGGTTYYADSVKGRFTISRDNAKINFYLQMNSLKPEDTAVYYCAADYYTDVDYWGQGNQVTVSS”: the “polyreactivity (PSR sort gate)” value is “low polyreactivity”.
